In PMC4927284:

Target: mutant (M97S, F110S) EndoBAR (endophilin Bin–Amphiphysin–Rvs domain of mouse endophilinA1) (mouse)
Assay: cross-linking

stoichiometry N: 2
Substance: mutant (M97S, F110S) EndoBAR (endophilin Bin–Amphiphysin–Rvs domain of mouse endophilinA1) (domain or fragment)
